The experiment addresses T1, GDF8 growth factor dimer (human, UniProt O14793 267-375, disulfide-linked dimer).
T1 sequence (looked up): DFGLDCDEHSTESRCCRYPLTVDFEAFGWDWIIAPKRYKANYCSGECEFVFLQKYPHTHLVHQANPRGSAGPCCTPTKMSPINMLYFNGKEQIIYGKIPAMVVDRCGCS
The experiment is described as follows: HDX-MS.

B1: N-prodomain fragment of GDF8 (N-terminal 15 kDa TLD-cleaved prodomain fragment) (domain or fragment, human, UniProt O14793 24-98, looked up)
chain: NENSEQKENVEKEGLCNACTWRQNTKSSRIEAIKIQILSKLRLETAPNISKDVIRQLLPKAPPLRELIDQYDVQR
modifications: predicted N-linked glycan attachment site (printed as Asn-71 in the text, Asn48 in Figure 1A)
Regarding B1, the binding result is listed as “binds”.

(Values after article doi:10.1101/154823 (bioRxiv, 2017).)
